{
  "source": "paper PMC6615999",
  "origin": "cited, not measured here",
  "molecular_target": "PKR (Homo sapiens) (UniProt P19525)",
  "note": "pKd: −log10 of the molar value.",
  "data": [
    {"substance": "PKR (from UniProt P19525)", "values": [
      {"measurement": "pKd", "result": 3.30}
    ]}
  ]
}
